Laboratory results published in patent US20240294670A1 (University of Texas, published 2024).
One block for each binder: values may come before it.

What was measured:
[1] = biological target: T1, recombinant human CHI3L1 (human, UniProt P36222 22-383); assay: ELISA: human CHI3L1 coated on the plate, B cell culture supernatant 100 ul/well, A450
T1 construct: His-tagged recombinant protein (Sino Biological 11227-H08H, or in-house HEK293 protein with 6xHIS-tag and avi-tag); also called hCHI3L1; hChi3l1
Procedure: (§1) FIG. 7. The ELISA binding of the supernatant antibody to the human CHI3L1. (hCHI3L1), and mouse CHI3L1 (mCHI3L1). The CHI3L1 protein was coated on maxi-sorp 96-well plates, cell culture supernatant (100 ul/well) was used for binding on the antigen coated plate. Binding signals (A450 nm) are shown in Y-axis and CHI3L1 mAbs are shown on X-axis.
(§2) Binding affinity of anti-CHI3L1 monoclonal antibodies to the CHI3L1 protein using ELISA method. Binding of CHI3L1 by monoclonal antibodies was first screened by ELISA using supernatants collected from the B cell cultures and cross reactivity to mouse CHI3L1 protein was determined (FIG. 7).

[2] = biological target: T2, recombinant mouse CHI3L1 (mouse, UniProt Q61362 30-389, limits assumed); assay: ELISA: mouse CHI3L1 coated on the plate, B cell culture supernatant 100 ul/well, A450
T2 construct: His-tagged; also called mCHI3L1; mChi3l1
Procedure: as §1, §2

[3] = biological target: T2, recombinant mouse CHI3L1; assay: BLI (Octet), mAb on protein A sensor, CHI3L1 in solution, 1:1 fit
Procedure: FIG. 8. Kinetic binding sensorgrams collected on Octet instrument for determination of kon and koff rates for each CHI3L1 antibody.
Binding affinity of anti-CHI3L1 monoclonal antibodies determined using Bio-layer interferometry (BLI), a sensor-based Octet instrument. […] Following by kinetics buffer washing to baseline, the loaded biosensors were exposed to a series of recombinant CHI3L1 protein at 0.1-200 nM range and background subtraction was used to correct for any background from sensor drifting. All experiments were performed with shaking at 1,000 rpm. Background wavelength shifts were measured from reference biosensors that were loaded with antibody and followed with buffer without antigen. ForteBio's data analysis software was used to fit the data to a 1:1 binding model to extract an association rate and dissociation rate. The KD was calculated using the ratio of koff/kon and the estimated values of KD for CHI3L1 mAbs in Table C.

T2 sequence (Q61362 30-389 limits assumed): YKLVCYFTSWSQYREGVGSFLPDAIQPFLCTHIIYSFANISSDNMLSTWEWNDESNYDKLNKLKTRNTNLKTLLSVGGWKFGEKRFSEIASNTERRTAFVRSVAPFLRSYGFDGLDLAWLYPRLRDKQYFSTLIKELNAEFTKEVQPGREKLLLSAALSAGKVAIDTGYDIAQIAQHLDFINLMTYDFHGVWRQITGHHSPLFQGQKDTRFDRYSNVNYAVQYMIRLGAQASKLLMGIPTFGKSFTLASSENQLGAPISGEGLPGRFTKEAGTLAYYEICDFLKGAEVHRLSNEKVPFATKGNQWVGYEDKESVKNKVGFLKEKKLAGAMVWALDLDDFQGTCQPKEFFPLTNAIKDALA
T1 sequence (P36222 22-383 limits assumed): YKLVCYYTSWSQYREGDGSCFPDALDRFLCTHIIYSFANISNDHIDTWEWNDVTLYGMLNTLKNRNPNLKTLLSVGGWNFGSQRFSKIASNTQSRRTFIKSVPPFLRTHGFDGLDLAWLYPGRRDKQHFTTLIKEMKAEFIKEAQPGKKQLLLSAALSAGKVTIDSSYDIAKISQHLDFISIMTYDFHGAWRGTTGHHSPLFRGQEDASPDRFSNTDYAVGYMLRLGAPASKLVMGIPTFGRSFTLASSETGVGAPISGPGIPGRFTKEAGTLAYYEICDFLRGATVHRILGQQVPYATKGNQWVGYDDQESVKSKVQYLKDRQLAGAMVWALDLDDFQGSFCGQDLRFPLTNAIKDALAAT

binding result [1]: binds
B1: anti-CHI3L1 monoclonal antibody C30 (antibody, V domains shown)
VH: QEQLVESGGGLVTPGGTLTLTCTASGFDFSSYYYMCWVRQAPGKGLELIAAIDTGSGETYYASWANGRFTISKTSSTTVTLQMTSLTAADTATYFCARDPYFGTNLWGPGTLVTVSS
VL: DPMLTQTPSPVSAAVGGTVTITCQASQSVYNNNYLSWFQQKPGQPPKLLIYKASILASGVPSRFKGSGSGTQFTLTISDLQCDDAATYYCLGGYSSPSDDAFGGGTKVVVE
notes: Rabbit mAb

binding result [1]: binds
binding result [2]: no binding
B2: anti-CHI3L1 monoclonal antibody C21 (antibody, V domains shown)
VH: QSVKESGGGLVQPEGSLTLTCTASGFSFSSSYYMCWVRQAPGKGLEWIACIYNGDGSTYYASWAKGRFTISKTSSTTVTLQMTSLTAADTATYFCARDADYAGVVLNLWGPGTLVTVSS
VL: AQVLTQTPASVEAAVGGTVTIKCQASESIGNALAWYQQKPGQPPKLLIYVASYLASGVSSRFKGSRSGTEYTLTISDLECVDAATYYCQCTWYGNVYLAFGGGTEVVVK
notes: Rabbit mAb

binding result [1]: binds
binding result [2]: no binding
B3: C22 (antibody, V domains shown)
VH: QLVEESGGGLVKPGAPLTLTCTLSGFSFSSGYYMCWVRQAPGKGLEWIACIYGAVSDRIYFASWAKGRFTMSRPSSTTVTLQMTSLTAADTATYFCARDSYSGSTYYRSYYFNLWGPGTLVTVSS
VL: DPVLTQTPASVSAAVGGTVTISCQSNENIYVDKYLSWYQQKPGQPPKGLIYSASTLASGVPSRFRGSGSGTQFTLTISDVQCDDAATYYCAGSFSSSDSCAFGGGTEVVVK
notes: also called anti-CHI3L1 monoclonal antibody C22

binding result [1]: binds
binding result [2]: no binding
B4: anti-CHI3L1 monoclonal antibody C23 (antibody, V domains shown)
VH: QSVKESGGGLVQPGGSLTLSCKASGFDFSSYYMSWVRQAPGKGLEWIGIIYGGKGTTDYASWVNGRFTISSDNAQNTVDLQMNSLTAADTATYFCARDYVSSSGYYMDLWGPGTLVTVSS
VL: ALVMTQTPASVSAAVGGTVTIKCQASEDIYSLLAWYQQKPGQPPKLLIYDASDLASGVPSRFSGSGSGTEYTLTISDLECDDAATYYCQGGYYSGSPTDNSFGGGTKVVVE
notes: Rabbit mAb

binding result [1]: no binding
Kd [3]: 0.799 nM
koff [3]: 0.00011 s⁻¹
kon [3]: 138000 M⁻¹ s⁻¹
B5: anti-CHI3L1 monoclonal antibody C68 (antibody, V domains shown)
VH: QSVEESGGDLVKPGASLTLTCTASGFSFSGPYWISWVRQAPGRGLEWIASIGARSSGSTHYASWAKGRFTISKTASTTVTLQMTSLTAADTATYFCARSYPAYAGDGYALYYFNLWGPGTLVTVSS
VL: DVVMTQTPASVSAAVGGTVTIKCQASEDIYSLLAWYQQKPGQPPKFLIYDASDLASGVPSRFSGSGSGTEYTLTINDLKCDDAATYYCQGGYYSGDGTDIPFGGGTELEIL
notes: Rabbit mAb from single B cells, expressed as full length IgG in HEK293

binding result [1]: binds
binding result [2]: no binding
B6: anti-CHI3L1 monoclonal antibody C25 (antibody, V domains shown)
VH: QSVEESGGDLVKPGASLTLTCTASGFSFSSSYYMCWVRQAPGKGLEWIACIYAGSSGSTWYASWAKGRFTISITSSTTVTLQMTSLTAADTATYFCARDRYGGGSYYIPYYFDLWGPGTLVTVSS
VL: ALVMTQTPSPVSAAVGGTVTINCQASQNIYVDSYLAWYQQKSGQPPKLLIYYASSLASGVPSRFSGSGSGTQFTLTISDLECDDAATYYCAGGYSADSDNAFGGGTEVVVK
notes: Rabbit mAb

binding result [1]: no binding
Kd [3]: 0.254 nM
koff [3]: 2.71e-05 s⁻¹
kon [3]: 107000 M⁻¹ s⁻¹
B7: anti-CHI3L1 monoclonal antibody C64 (antibody, V domains shown)
VH: QSVEESGGDLVKPGASLTLTCTASGFSFSNNYWICWIRQAPGKGLEWIACIYAGDTGTAYYANWAKGRFTISKTSSTTVTLQMTSLTAADTATYFCARDGDGVGNGGTFALWGPGTLVTVSS
VL: ALVMTQTPASVEAAVGGTVTIRCQASERIGNALAWYQQKPGQPPKLLIYQTSKLTSGVPSRFKGSGSGTEHTLTISDLECADAATYYCQSYYYTGSISYEFGGGTKVVVE
notes: as for B5

binding result [1]: binds
binding result [2]: no binding
B8: anti-CHI3L1 monoclonal antibody C17 (antibody, V domains shown)
VH: QSVKESGGDLVKPGASLTLTCTASGFSFSSSYWICWVRQAPGKGLEWIACIDAGSSESTYYASWAKGRFTISKTSSTTVTLQMTSLTAADTATYFCARDSRVVAGVGMYLNLWGPGTLVTVSS
VL: AIKMTQTPASVEVAVGGTVTIKCQASQSIGIYLAWYQQKPGQPPKLLIYDASDLASGVPSRFRGSGSGTQFTLTISGVECADAATYYCQQGDTIYNVDNTFGGGTKVVVE
notes: Rabbit mAb

binding result [1]: binds
binding result [2]: no binding
B9: anti-CHI3L1 monoclonal antibody C19 (antibody, V domains shown)
VH: QEQLVEYGGDLVQPEGSLTLTCTASGFTISSTFYMGWVRQAPGKGLEWIGDMHVGSATTTYYASWAKGRFTISKPSSTTVTLQMTSLTAADTATYFCARYVNSGYYMDSWGPGTLVTVSS
VL: AQVLTQTPASVEVAVGGTVTIKCQASQTISNLLAWYQQKPGQPPKLLIYDASTLAYGVSSRFSGSGSGTQFTLTISGVQCADAATYYCQQGWSSSNVDNVFGGGTKLEIK
notes: Rabbit mAb

binding result [1]: binds
binding result [2]: no binding
B10: anti-CHI3L1 monoclonal antibody C18 (antibody, V domains shown)
VH: KQLVEESGGDLVRPEGSLTLTCKGSGFDFSRNAMCWVRQAPGKGLEWIACIYVGSGGGTYYATWAKGRFTISKTSSTTVTLQMTSLTAADTATYFCAGSPYSGYGYFNLWGPGTLVTVSS
VL: DPMLTQTPASVSEPVGGTVTIKCQASQSISTALAWYQQKPGQPPKLLIYRASILASGVPSRFKGSGSGTEFTLTISDLECADAATYYCQSYYDSSAGNTFGGGTKVEIK
notes: Rabbit mAb

binding result [1]: binds
binding result [2]: binds
B11: anti-CHI3L1 monoclonal antibody C15 (antibody, V domains shown)
VH: QSVKESGGGLVQPEGSLTLTCTASGFDFSSNAMCWVRQAPGKGPEWIACIYNGDASTYYASWAKGRSTISKTSSTTVTLQMTSLTAADTATYFCARCFNRFYRGDLWGPGTLVTVSS
VL: DPMLTQTPSSVSAAVGGTVSISCQSSQSVYDNDWLSWYQQKPGQPPKLLIYDASKLASGVPSRFKGSGSGTQFTLTISDVQCDAAATYYCAGDYINTIDNAFGGGTEVVVK
notes: Rabbit mAb

binding result [1]: no binding
Kd [3]: 2.81 nM
koff [3]: 0.000201 s⁻¹
kon [3]: 71500 M⁻¹ s⁻¹
B12: anti-CHI3L1 monoclonal antibody C61 (antibody, V domains shown)
VH: QEQLEESGGDLVKPEGSLTLTCTASGFSFSSSYWICWVRQAPGKGLEWIACIYAGGSGSTYYASWAKGRFTISKTSSTTVTLQMTSLTAADAATYFCARDGVSGSGWFFNLWGPGTLVTVSS
VL: DVVMTQTPASVSEPVGGTVTIKCQASQSISSYLTWYQQKPGQPPKLLIYKASTLASGVSSRFKGSGSGTEFTLTISDLECADAATYYCQSSYYGPSDVDFSPFGGGTEVEIK
notes: as for B5

binding result [1]: binds
binding result [2]: no binding
B13: anti-CHI3L1 monoclonal antibody C27 (antibody, V domains shown)
VH: QSVEESGGGLVKPEGSLTLTCTASGFSFSYRYYMCWVRQAPGKGLEWIGCIDNGDGDTYYASWVNGRFTISKASSTTVTLQMTSLTAADTATYFCARGSSGYNGFNFWGPGTLVTVSS
VL: ALVMTQTPASVSAAVAGTVTIKCQASQSIGSYLAWYQQKPGQPPKLLIYATSILASGVSSRLKGSRSGTEYTLTISDLECADAATYYCQCGYYDSNYGGAFGGGTEVVVK
notes: Rabbit mAb

Kd [3]: 1.22 nM
koff [3]: 0.000141 s⁻¹
kon [3]: 115000 M⁻¹ s⁻¹
B14: anti-CHI3L1 monoclonal antibody C55 (antibody, V domains shown)
VH: QSVKESGGDLVKPGASLTLTCTASGFSFSSDYDIYWVRQAPGKGLEWIAWIDGGSSGEIYANWAKGRFTISKTSSTTVTLQMTSLTAADTAAYFCARCIWSHNYYDLWGPGTLVTVSS
VL: AIKMTQTPSSVSAAVGGTVTINCQASEDIENYLAWYQQKPGQPPKLLIYRASTLASGVSSRFKGSGSGTEFTLTISDLECADAATYWCQQGYSGSNVDNFFGGGTKVVVE
notes: Rabbit mAb from single B cells, expressed as full length IgG in HEK293; also called clone 55

Kd [3]: 6 nM
koff [3]: 0.000756 s⁻¹
kon [3]: 126000 M⁻¹ s⁻¹
B15: anti-CHI3L1 monoclonal antibody C65 (antibody, V domains shown)
VH: QSVEESGGGLVQPEGSLTLTCTASGFSFSSSYYMCWVRQAPGKGLEWIACIFTGGVSTYYASWVNGRFTISKTSSTTVTLQMTSLTAADTATYFCARTYTAGFTGDNYFNLWGPGTLVTVSS
VL: AQVLTQTPASVEAAVGGTVTIKCQASQSISSYLAWYQQKPGQPPKLLIYRASTLASGVPSRFKGSGSGTEFTLTISDLECADAATYYCQSDYYSSSSNNGFVFGGGTEVVVK
notes: as for B5

binding result [1]: no binding
Kd [3]: 4.09 nM
koff [3]: 0.000223 s⁻¹
kon [3]: 54500 M⁻¹ s⁻¹
B16: anti-CHI3L1 monoclonal antibody C57 (antibody, V domains shown)
VH: QSVEESGGGLVQPGGSLTLTCKASGFSFSSGYWMCWVRQAPGKGLEWIACIGASYGGTFYASWAKGRFTISKTSSTTVTLQMTSLTAADTATYFCTRDDGGLDNPNLWGPGTLVTVSS
VL: DPVLTQTPASVEAAVGGTVTIKCQASQSIGSILAWYQQKPGQPPHLLIYAAAKLASGVPSRFKGSGSGTQFTLTISGVECDDAATYYCQSYYYSVTTSYSNSFGGGTEVVVK
notes: as for B5
